Source: the domain aggregation screens of Martell et al. (2025)

Assay: soluble fraction after stress (log2 fold change); higher = more stays soluble; pooled small domains, quantitative proteomics
Conditions: stress: pH 4
In short: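 With high-throughput quantitative proteomics, pooled custom libraries of small protein domains were measured after pH 4 stress. Each domain's soluble amount after the stress gives a fold change taken as aggregation propensity. Higher log2 values mean more of the domain stayed soluble.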

Sequence | soluble fraction (log2)
HMIKLTVRQQEILDLIARSIDQTGFPPTRAEIAAELGFKSVNAAEEHLQALARKGVIEMVPGISRGIRLVQ | -0.306
HMHSRLEDIPGIGPRRRAMLLRHFGGLAELKAAGVEEIARVEGINMALAQRLWRALHGVPDPT | 0.343
HMGAVFEFIMEEEEPERIDKLLSSALPDLSRSYLQKLVKEGAVLVNKKEVKPNHKVNPGDVVEISVPEPE | -0.744
HMSSVEVWINGKSSGLTSDNRAQILQQLPAESIERIEVIDNPSAKFSAEGSAGIINIVLKKD | -0.177
HMPRELKVRDVSHQHAGHAGWREGGETHFEVDMKADVFAGTSRVAAHRMVNKVLANELASRVHALQLNLS | -0.308
HMKEKLGEFENVFLSVDELQKLKSKLGAETESYIERLSNYIASSGKKYKSHYATILSWTQKDTK | -0.644
HMKALDTVLSEIPGLGPVRIKQLLKVFGSVDAIRKASLQDLQQIEGIGPKLAQTIYEYFHQP | -0.328
HMNSTGVYQRPDGFWEYRFTLSINGKKLPRRKSTDLMGNKLKTKREAIKAREEAIIALRTEKTI | 0.4
HMERNAEDFAAKYQEIYQDMFRFALYTLKNRQEAEDVVSETVLDAWKGIEGLKNESAFSAWMFRILVNK | -0.325
HMSSTPEPPQAVLDLVNLREQARAGKDWTQSDAFRQQIAALGWTVKDTKDGPVVSLSPTTTE | 0.105
HMSNHYETLGVEQTASVDEIKKAYRRLSLQYHPDRNTTSDAVGKFQKINDAHEILSDKQSRTEYDMQLK | 0.0857
HMNSEERVLDTASKWLVKLDEGLDESEAQVLKVWLATPLHRDTFLEMVALWDKMSVLNELADIV | -1.94
HMAKLGITQREQEVLQLLVTGKTYKEIAAELFISLPTVKTHVSNIYSKAKVRNRLELSNLINYI | -1.22
HMKDTNENLMKMLALLIHAAKIDENYSDEEKELIVNFAEMSSKENLNREQILSIIKSAEEYE | -0.673
HMTNELTEIFNSIRLTKKQKELLQSNYLSLRETYFLQGKTAFNLKFKNIAGLGKSTKKVLLEFFEESIE | -0.499
HMELSVTDRTRQIRHILKEKGRVEFTSLFEELTKPYVIVTFLSVLEMSKNNELMITQDKTFGSITLEMKG | -0.383
HMAPPPPEGYIHRWIRESVMGFDDKKNLSARIREGFELVRAEEYPDYEAPTVMDGKHAGVIANGGLLLARF | -0.236
HMTATKDLPFSTFITEVEKGNITSVDIKGNQIEGTFSNGAKFKTYSPNYPNLVERLADKGVAISAGPS | 0.141
HMQNYLEFIGNELKALTSIPSPSGYTKDVAAYLMKTLSDMGYEPQLSNKGNVFVTIGGEGNPLVLAAHVD | -0.436
HMALLKRQDEILMYLYTQNKWITGNELAQLFHVSLRTIRNDISFINTEKSNSVLSNRNKGYHIAKDFVYNE | -0.0758
HMVQVPSLVGISEIEAKTLLTQAGFFVKIVEVFDANQPVGIVLAQAPSAGESRIIGSPVTITVNKAQ | -0.6
HMGGQFVKVEVIAQIFGVTVRRVQQLTQEGVVKTTEIPGEGRRYELVPTIKTYIQYLSDKAY | 0.0375
HMTRNGTVTFFNHDKGYGFIKDVLTQESVFVHINSLSEPINEQNKVSFEIEMGPRGSNAINVKLI | -1.86
HMEMLQENIRNLRKAKGWSQEELAIKLNVVRQTVSKWEKGLSVPDSQMLIRIADELDTTVAILLG | 0.253
HMTSHPTHTILDGKVHVFMRDGSPFWWGGFHFKGKYLRTSTKQKNLDSAKTIAQQWYFQKQTEIASGE | -0.0801
HMSPSSPNQILGQYPKTKNDIILSSGRYGPYLKYNKKNYSLGNNISVEKLSLEEAVKIIDLKDKK | 0.0926
HMRLPNGYGSITKLSGKRRKPFMVRITTGYDNEGKQLMSVLGYYATRTEALAVLAEYNKNPYNPI | 0.109
HMETLKEVPNLKGQQQEVAKQLLINAGLGVGKINIIEDSTIADGEVVTQSILPNTKVKKDTYVGFTVNKAP | 0.22

Sequence | soluble fraction (log2)
HMKKVIEFKDVSFAFEKKPILQDFNLLVQNKDRIGIVGDNGVGKSTLLNLIAERLQPQSGQVII | 0.0777
HMEEEDELALFLREERKNYDLTLTDVHEKTGIPQKVLKEFQWGDAQLTDRQRYTLTQYVEEAREYFQENA | -0.998
HMSNETKSAILNFAEKHHDFNIDDLFESLSKSMDINRSSLLWHLFKLVNSNVLIRTGRGMYAKV | -0.839
HMKGKITTNWVSLTSDLGWLRSELYSSGSVLEERISNEGLIELHLENFQNDLIKLLEVEGFDLIKE | -1.73
HMSEEIKVPNFVGSTFEKAQALAQETGLEIARGEDVYSPDQEEGKITSQNPTADSVVSPGKLITVYVSKG | 0.0365
HMPHFGVVLQMDDWKTLRDRLEARDDIDWVMKPNLRFEGQPGEQATLFIRDPSGNALEFKGFADLSQVF | -1.64
HMISKTFEINEDNINNRLDIFLANQFDNLSRGIVQKLIESHSVSVSGNFVEKDYKLKLGDIIDVEINLS | -0.853
HMQAPAFDYSKVQEGVTVNHKIFGDGTVSWIDKARKYIRVQFSVGEKMFTMETAFVQGFLSL | -1.03
HMPLAQRFGLTVAQARVLDLLAEGRSNRQIGELLGLTEGTVKIHVSAIMKAMGVSNRAEAALMANRKR | -0.29
HMLGNIERALEMLQEVAATMDPVDIRLLLSMAQVESVRGNTEAAVKLIDEALVIDPGNERIEQIRLRVL | -0.869
HMNRREFQFSEGSSNKFWSIELRDQSFIVHYGKIGTNGQAQEKTFATADAAKKEHDKLIAEKTKKGYVEVQ | -0.691
HMDIKEIIKNRRIELGLTLKEVATAVGVSEGTVSRWESGNITNMKRNKIAALAKTLQIPPTTI | 0.0875
HMYEDGGAFLKAEREKYGLTLTDIYEHTHIPVRKLKAYEMHEEEMPDRTRALLELYFDQVAYEYES | -0.339
HMQDLPPIHLSRGMTDYTLVRSRRRTLSMELKRDGTVVVHAPLRLGVEKIDAFVAAHEAWLARARTRQAER | 0.196
HMKQENRLKILRKEKGLTQTKLANEIGVSKRTIIAWENDERQIKPDKAQQLADYFGVKEGYLLGYTNN | -0.0458
HMTYTPRAGSLASQVIGFFRHNPDEELLLDDITDKFDATRGNIHTLLAEAVRFKLLARYRNDDGDYVYKPG | -1.6
HMAHKYYSIMRPVSIGTFPDNGTILGIVNFDTRQMVESIGKMAWGYINYGKPLTEKQISDYELVAE | 0.361
HMQAMDYEGFKKEILKMSDIDLSLYKEKQMKRRIDSLIRKNGYEHYEDYVQALKQDSGLYNEFINYLTI | -1.33
HMTDTSFPRLGAPEEELLSFLAKWEIDAEDAHYTKFSLYYQSTGKMMRDWKATWRAWKERQSELNAQR | -1.05
HMITNSTEIEAMIDSLIKENPEQAEQYRNGNTKVVGWFVGQMMKASKGKANPQVVGDLLAQKLVG | -0.821
HMLKLSGEESQQLALRLREELARRRITRQGLADAAKISISTLEQVLAGRRTFTLATIVRLEEGLGIKLL | 0.387
HMRVDRSALDSIPGVGPGRKRTLLHHFGSARAVEASGLADLESIRGISKALARKIYDFFHPE | 0.161
HMENPPISVVIPPSFRGQRIDKALGSLIGDYSRSKIQQWLQSGLVQSAGEPLLPKYTVLGNEQILIAVPS | 0.03
HMRDTAKTLLAMEVVGENNKKNLQAFGIQKGDQNYQTAVVVRLMQKALMEGDTSAIRLIGELTGD | -0.44
HMGPPLISLDDGLAKGFGVGVGDTLTINILGRRITATIASLREIDWQSLRFDFAVVLSPGVLEGA | 0.063
HMESRRVTLLLPYDKAGIADTLRREAAVLSLEYGEDGVTVEAVVKPELWGLVREYVQNDNPK | -0.319
HMKSATGKIPDFISDLPVDEFVRELIVTNAFQPLNKFKEVQNHIGSALKIYVDELTEKRANGTVHILYSHK | -0.324
